Measurements taken from patent US20050256302A1, “Novel peptides having camp producing activity” (Japan Science and Technology Agency, priority 2002, published 2005).
Bridges are numbered along the chain shown (N, C = ends). Where no end group is shown, it is not given here.

How the values were obtained:
[1] = tested on: LLC-PK1 cells; assay: cAMP production in LLC-PK1 cells by bovine or canine CRSP; format: cell-based, pig; details: 10 minutes, IBMX
Description: Further, with regard to the peptides of the present invention identified in cow and dog (bovine CRSP and canine CRSP), cAMP productivity of CRSP using LLC-PK1 cells by the same manner as above was investigated.
LLC-PK1 cells were incubated in a culture medium (a Dulbecco-modified Eagle medium (DMEM) containing 10% of fetal bovine serum). After two days, the cells were washed twice with a DMEM containing 0.05% of bovine serum albumin, the medium in the incubation dish was substituted with a DMEM containing 0.5 mM of 3-isobutyl-1-methylxanthine and 0.05% of bovine serum albumin (DMEM/BSA/IBMX) and incubation was conducted at 37° C. for 30 minutes. After the incubation, the medium was substituted with a DMEM/BSA/IBMX in which CRSP was dissolved so as to make it 0 M and 10^−12 to 10^−6 M and incubation was conducted at 37° C. for 10 minutes. After the incubation, the medium in the incubating dish was removed, ethanol was added thereto and the incubating dish was once frozen in a freezer for the cell lysis. […] After that, 100 μl of 1% γ-globulin and 500 μl of 25% polyethylene glycol were added, the mixture was well mixed and centrifuged and radioactivity of the precipitate was measured using a gamma-counter and compared with radioactivity of the standard curve prepared by cAMP of known concentrations whereupon the amount of cAMP was quantified.

[2] = biological target: T1, Pig calcitonin receptor (CTR) (Sus scrofa, UniProt P25117); assay: cAMP production in COS-7 cells expressing pig calcitonin receptor; format: cell-based; details: CTR expressed in COS-7
T1 construct: expressed in transfected cells; host or cells: COS-7 (given as rhesus monkey renal cells), vector pcDNA 3.1
T1 sequence (P25117 30-498): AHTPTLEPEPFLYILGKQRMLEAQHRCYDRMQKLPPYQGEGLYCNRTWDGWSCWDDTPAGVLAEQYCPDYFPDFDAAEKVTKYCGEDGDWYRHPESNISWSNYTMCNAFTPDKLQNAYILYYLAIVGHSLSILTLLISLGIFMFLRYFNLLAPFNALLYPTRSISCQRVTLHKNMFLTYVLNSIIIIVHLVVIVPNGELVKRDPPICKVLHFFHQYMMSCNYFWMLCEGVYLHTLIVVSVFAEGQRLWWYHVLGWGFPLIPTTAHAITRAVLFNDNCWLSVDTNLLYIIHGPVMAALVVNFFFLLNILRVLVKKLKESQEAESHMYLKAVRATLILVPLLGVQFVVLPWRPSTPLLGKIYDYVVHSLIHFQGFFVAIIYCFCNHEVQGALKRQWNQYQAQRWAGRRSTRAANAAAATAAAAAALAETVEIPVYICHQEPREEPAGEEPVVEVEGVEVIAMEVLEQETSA
Description: Pig calcitonin receptor (CTR) was introduced into a mammalian expression vector pcDNA 3.1, expressed in rhesus monkey renal cells (COS-7) and production amount of cAMP by stimulation of CRSP was measured by radioimmunoassay. Similarly, CTR was expressed in opossum renal cells (OK cells) and production amount of cAMP by stimulation of CRSP was measured by radioimmunoassay while incorporation of sodium ion was measured by measuring the incorporation of sodium chloride having radioactivity (^22Na) by a gamma-counter.
Pig calcitonin receptor (CTR) was introduced into mammalian expression vector pcDNA 3.1 and then expressed in rhesus monkey renal cells (COS-7) whereupon production amount of cAMP by CRSP stimulation was measured by radioimmunoassay.
Pig calcitonin receptor (CTR) was introduced into a mammalian expression vector pcDNA 3.1 and expressed in rhesus monkey renal cells (COS-7) and production amount of cAMP by CRSP stimulation was measured by radioimmunoassay.
Pig calcitonin receptor (CTR) was introduced into a mammalian expression vector pcDNA 3.1, then expressed in rhesus monkey renal cells (COS-7) and production amount of cAMP by CRSP or CRSP-Gly stimulation was measured-by radioimmunoassay.

[3] = biological target: T2, pig calcitonin receptor (CTR) (pig, UniProt P25117); assay: cell-based or functional assay
T2 sequence: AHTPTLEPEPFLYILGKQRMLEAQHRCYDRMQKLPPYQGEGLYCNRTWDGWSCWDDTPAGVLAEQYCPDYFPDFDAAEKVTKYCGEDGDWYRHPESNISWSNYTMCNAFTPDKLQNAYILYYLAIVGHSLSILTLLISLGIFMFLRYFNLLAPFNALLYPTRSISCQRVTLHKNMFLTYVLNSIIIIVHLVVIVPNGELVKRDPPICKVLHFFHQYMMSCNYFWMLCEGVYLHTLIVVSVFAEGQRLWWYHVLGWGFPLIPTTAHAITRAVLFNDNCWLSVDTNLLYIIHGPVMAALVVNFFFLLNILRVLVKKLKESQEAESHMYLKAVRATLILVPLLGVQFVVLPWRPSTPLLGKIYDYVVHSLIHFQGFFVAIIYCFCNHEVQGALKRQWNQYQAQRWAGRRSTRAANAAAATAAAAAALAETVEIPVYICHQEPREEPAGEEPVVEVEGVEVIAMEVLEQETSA

ACNTATCMTHRLAGWLSRSGSMVRSNLLPTKMGFKIFNGP-OH (not fully specified (bridges); printed as ACNTATCMTHRLAGWLSRSGSMVRSNLLPTKMGFKIFNGP-OH; cysteine pairing not given here; listed as Bos sp.) [bovine CRSP]
cAMP productivity compared with pig CRSP [1]: nearly the same result as in the case of pig CRSP

SCNSATCVAHWLGGLLSRAGSVANTNLLPTSMGFKVYN-OH (not fully specified (bridges); printed as SCNSATCVAHWLGGLLSRAGSVANTNLLPTSMGFKVYN-OH; cysteine pairing not given here; listed as Canis sp.) [canine CRSP]
cAMP productivity compared with pig CRSP [1]: nearly the same result as in the case of pig CRSP

Ser-Cys-Asn-Thr-Ala-Thr-Cys-Met-Thr-His-Arg-Leu-Val-Gly-Leu-Leu-Ser-Arg-Ser-Gly-Ser-Met-Val-Arg-Ser-Asn-Leu-Leu-Pro-Thr-Lys-Met-Gly-Phe-Lys-Val-Phe-Gly-Gly-OH (SCNTATCMTHRLVGLLSRSGSMVRSNLLPTKMGFKVFGG-OH; not fully specified (bridges); printed as Ser-Cys-Asn-Thr-Ala-Thr-Cys-Met-Thr-His-Arg-Leu-Val-Gly-Leu-Leu-Ser-Arg-Ser-Gly-Ser-Met-Val-Arg-Ser-Asn-Leu-Leu-Pro-Thr-Lys-Met-Gly-Phe-Lys-Val-Phe-Gly-Gly-OH; cysteine pairing not given here; listed as Sus sp.) [CRSP-Gly]
cAMP productivity, CRSP compared with CRSP-Gly [2]: nearly the same cAMP productivity

B1: pig calcitonin receptor-stimulating peptide (CRSP) (peptide)
peptide: SCNTATCMTHRLVGLLSRSGSMVRSNLLPTKMGFKVFG-NH2
modifications: disulfide 2-7; N-terminus assumed
SMILES: CSCC[C@H](NC(=O)[C@H](CCCCN)NC(=O)[C@@H](NC(=O)[C@@H]1CCCN1C(=O)[C@H](CC(C)C)NC(=O)[C@H](CC(C)C)NC(=O)[C@H](CC(N)=O)NC(=O)[C@H](CO)NC(=O)[C@H](CCCNC(=N)N)NC(=O)[C@@H](NC(=O)[C@H](CCSC)NC(=O)[C@H](CO)NC(=O)CNC(=O)[C@H](CO)NC(=O)[C@H](CCCNC(=N)N)NC(=O)[C@H](CO)NC(=O)[C@H](CC(C)C)NC(=O)[C@H](CC(C)C)NC(=O)CNC(=O)[C@@H](NC(=O)[C@H](CC(C)C)NC(=O)[C@H](CCCNC(=N)N)NC(=O)[C@H](Cc1c[nH]cn1)NC(=O)[C@@H](NC(=O)[C@H](CCSC)NC(=O)[C@@H]1CSSC[C@H](NC(=O)[C@@H](N)CO)C(=O)N[C@@H](CC(N)=O)C(=O)N[C@@H]([C@@H](C)O)C(=O)N[C@@H](C)C(=O)N[C@@H]([C@@H](C)O)C(=O)N1)[C@@H](C)O)C(C)C)C(C)C)[C@@H](C)O)C(=O)NCC(=O)N[C@@H](Cc1ccccc1)C(=O)N[C@@H](CCCCN)C(=O)N[C@H](C(=O)N[C@@H](Cc1ccccc1)C(=O)NCC(N)=O)C(C)C
cAMP-producing activity relative to pig CGRP, LLC-PK1 cells [3]: ~40 fold
cAMP-producing activity relative to pig calcitonin, COS-7 cells expressing pig CTR [3]: ~350 fold
cAMP-producing activity relative to pig calcitonin, LLC-PK1 cells [3]: ~6 fold
